Laboratory results taken from patent US12661396B2, “Selective targeting of the TREML1/MD2 interaction by small peptide or protein and its use for vaccine adjuvants” (Ascendo Biotechnology, Inc., priority 2020, dated 2026).
One block for each molecule: values may come before it.

How the values were obtained:
[1] = target: T1, CD14 (Homo sapiens, UniProt P08571); test: Solid phase binding assay, hCD14 to immobilized TREML1 stalk; settings: stalk coated 5 ug/ml; FIGS. 3A and 3B
T1 sequence (P08571 20-345): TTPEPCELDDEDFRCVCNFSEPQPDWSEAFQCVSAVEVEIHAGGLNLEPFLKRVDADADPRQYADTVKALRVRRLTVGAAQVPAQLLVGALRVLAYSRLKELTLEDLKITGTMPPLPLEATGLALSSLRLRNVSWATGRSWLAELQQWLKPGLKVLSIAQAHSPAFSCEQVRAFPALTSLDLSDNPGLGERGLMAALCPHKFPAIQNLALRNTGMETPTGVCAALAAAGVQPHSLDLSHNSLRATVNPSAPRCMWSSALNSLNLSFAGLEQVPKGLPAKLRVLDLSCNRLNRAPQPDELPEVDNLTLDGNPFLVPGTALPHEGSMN
Procedure: (§1) For TREML1 or mTREML1 stalk binding to human or mouse MD2 protein, TREML1 stalk or mTREML1 stalk (5 ug/ml in PBS) was coated separately on a 96-well plate. Recombinant hTLR4, hMD2, hCD14, or mMD2 was each serially diluted and added to the plates. Anti-His tag antibody-HRP was used as a detection antibody to detect the protein binding.

[2] = target: TLR4 (Homo sapiens, UniProt O00206); test: Solid phase binding assay, hTLR4 to immobilized TREML1 stalk; settings: stalk coated 5 ug/ml; FIGS. 3A and 3B
TLR4, sequence (O00206 24-839): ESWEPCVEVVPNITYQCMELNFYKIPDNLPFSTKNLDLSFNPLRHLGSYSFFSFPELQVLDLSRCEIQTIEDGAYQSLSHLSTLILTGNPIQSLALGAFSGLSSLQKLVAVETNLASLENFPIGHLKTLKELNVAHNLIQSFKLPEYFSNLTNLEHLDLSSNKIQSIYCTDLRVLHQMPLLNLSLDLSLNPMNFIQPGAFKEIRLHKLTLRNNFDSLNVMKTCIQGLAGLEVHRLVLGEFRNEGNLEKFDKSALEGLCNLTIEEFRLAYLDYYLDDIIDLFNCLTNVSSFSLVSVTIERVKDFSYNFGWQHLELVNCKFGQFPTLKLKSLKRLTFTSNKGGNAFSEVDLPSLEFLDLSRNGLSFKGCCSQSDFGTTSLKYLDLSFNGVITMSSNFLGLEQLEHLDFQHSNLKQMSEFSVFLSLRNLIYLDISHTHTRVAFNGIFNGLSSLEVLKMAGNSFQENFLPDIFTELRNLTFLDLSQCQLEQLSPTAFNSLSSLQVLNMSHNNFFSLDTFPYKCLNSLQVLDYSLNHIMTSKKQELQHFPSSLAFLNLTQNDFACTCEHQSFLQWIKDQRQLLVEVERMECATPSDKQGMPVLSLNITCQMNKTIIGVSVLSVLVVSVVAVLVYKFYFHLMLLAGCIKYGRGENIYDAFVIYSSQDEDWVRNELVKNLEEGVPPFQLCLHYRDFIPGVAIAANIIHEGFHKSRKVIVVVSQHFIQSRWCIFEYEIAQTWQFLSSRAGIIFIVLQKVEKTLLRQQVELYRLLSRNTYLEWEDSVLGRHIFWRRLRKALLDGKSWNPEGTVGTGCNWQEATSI
Procedure: as §1

[3] = target: T2, MD2 (Homo sapiens, UniProt Q9Y6Y9); test: Solid phase binding assay, hMD2 to immobilized TREML1 stalk; settings: stalk coated 5 ug/ml; anti-His tag antibody-HRP detection; FIG. 3A
T2 sequence (Q9Y6Y9 19-160): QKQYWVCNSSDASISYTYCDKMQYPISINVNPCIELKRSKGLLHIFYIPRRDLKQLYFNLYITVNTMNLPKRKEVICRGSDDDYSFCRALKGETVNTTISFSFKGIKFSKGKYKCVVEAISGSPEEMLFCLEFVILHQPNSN
Procedure: as §1

[4] = test system: Human peripheral blood mononuclear cells (PBMCs); test: TLR agonist-induced TNF-α secretion in human PBMCs with or without TREML1 ECD; type: cell-based; settings: human PBMCs, 18 hr; FIG. 7A
Procedure: Human peripheral blood samples from healthy volunteer donors were collected by venipuncture bled into ACD vacutainer tubes. Human peripheral blood mononuclear cells (PBMCs), which were separated from whole blood using Ficoll-Paque Plus (GE17-1440-03) according to the manufacturer's instructions. Human peripheral blood mononuclear cells (PBMCs) were pretreated with or without […]1 (10 ug/ml, 5 ug/ml and 1 ug/ml) and incubated for 30 min at 37° C. with 5% CO2. After treatments, cells were stimulated with TLR agonist, including R848 (InvivoGen #tlrl-r848) and ODN2395 (InvivoGen #tlrl-2395), and incubated at 37° C. with 5% CO2 for 18 hr. Supernatants of cell culture medium were collected for TNF-α measurements. Cell supernatants and plasma samples were harvested and stored at -80° C. Human TNFα concentrations were detected using TNF-α DuoSet ELISA kit (R&D #DY210) according to manufacturer's instructions. Signals were developed using 3,3',5,5'-tetramethylbenzidine and the absorbance of 450 nm was detected with a microplate reader.

[5] = test system: BMDCs; test: Mouse bone marrow derived dendritic cell maturation (flow cytometry); type: cell-based; settings: FIG. 8
Procedure: Femurs and tibiae were harvested from female C57BL/6 mice and extra muscle tissues were removed. Bones were disinfected in 70% ethanol, then rinsed with RPMI-1640 medium, and both ends were cut to flush out the bone marrow with RPMI-1640 medium using 26 G needle syringes. To disperse cell clumps, bone marrow suspension was pipetted in-and-out several times and washed twice with RPMI-1640 medium by centrifugation. […] At day 0, after cell counting, the leukocytes were seeded at a concentration of 2×10^6 cells/10 ml R10 medium containing 200 U/ml rmGM-CSF in sterile […] Petri dish and incubated at 37° C. with 5% CO2. At day 3, another 10 ml of R10 medium containing 200 U/ml rmGM-CSF was added. At days 6, one half of the supernatant was taken out and centrifuged to collect cell pellet, which was resuspend in original plate with 10 ml of R10 medium containing 200 U/ml GM-CSF. At day 8, non-adherent cells were collected by gentle pipetting and centrifuged at 300 g for 5 min. To obtain purer dendritic cells, the population of macrophages (F4/80^high) was removed with Anti-F4/80 MicroBeads UltraPure (130-110-443, Miltenyi Biotec, Bergisch Gladbach, Germany) following the manufacturer's instructions. Briefly, cell pellet was resuspended and mixed well in MACS buffer with Anti-F4/80 MicroBeads UltraPure. This mixture was incubated for 15 min in the dark in 4° C. After washing cells with MACS buffer, cells were resuspended in MACS buffer, filtered with 30 μm nylon mesh, and added to the MACS buffer rinsed column to separate F4/80^+ cells. Unlabeled cells were collected and washed with R10 medium. To freeze the cells, cell pellet was counted and resuspended at a concentration 1×10^7 cell in 2 ml CELLBANKER2 (#11891, ZENOAQ) per cryopreservation vial and stored at −80 degree Celsius.
BMDCs were thawed for the DC maturation experiments. These cells were seeded at 1×10^6 cells/2 ml in R10 medium containing 200 U/ml rmGM-CSF in wells of a 6-well tissue culture dish and cultured to recover the cell viability at 37° C. with 5% CO2. After 6 hr, BMDCs were treated with various fragments of mTREML1 protein and cultured in 37° C. with 5% CO2. On the next day, resuspended cells were collected and analyzed by flow cytometry.
Cells were centrifuged at 1800 rpm for 3 min in PBS containing 1% FBS and 0.1% sodium azide (PBSBA), and then divided at a concentration of 1×10^5 cells/100 ul PBSBA in flow tube. Before staining the surface marker of DC, cells were treated with mouse Fc blocker to avoid antibody non-specific binding at room temperature for 30 min. […] After PBSBA washing, samples were analyzed using the CytoFlex flow cytometer with the CytExpert software.

CD14 binding to immobilized TREML1 stalk [1]: do not bind TREML1 stalk
TLR4 binding to immobilized TREML1 stalk [2]: do not bind TREML1 stalk
Molecule: TREML1 stalk: human TREML1 stalk polypeptide, SEQ ID NO:3, ILPPEEEEETHKIGSLAENAFSDPAGSANPLEPSQDEKSIP, chemically synthesized (listed as Homo sapiens)
MD2 binding to immobilized TREML1 stalk [3]: binds with TREML1 stalk in a concentration-dependent manner

Molecule: CCOCc1nc2c(N)nc3ccccc3c2n1CC(C)(C)O [R848, 4-amino-2-(ethoxymethyl)-α,α-dimethyl-1H-imidazo[4,5-c]quinoline-1-ethanol, reference compound]
TNF-α secretion induced by TLR agonist alone [4]: can induce TNF-α secretion

B1: mTREML1 ECD: mouse TREML1 extracellular domain, SEQ ID NO:2; recombinant, E. coli, polyhistidine tag at the N-terminus (protein, listed as Mus musculus)
chain: DSHPEVLQAPVGSSILVQCHYRLQDVRALKVWCQFLQEGCHPLVTSAVDRRAPGNGRIFLTDLGGGLLQVEMVTLQEEDTGEYGCVVEGAAGPQTLHRVSLLVLPPVPGPREGEEAEDEKETYRIGTGSLLEDPSLDPSASAGPHEFRRRENSIP
modifications: N-terminal polyhistidine tag
notes: recombinant, E. coli, polyhistidine tag at the N-terminus
dendritic cell maturation effect compared with TNF-α [5]: significantly stronger than those of TNF-α
dendritic cell maturation (DC maturation markers CD40, CD86, CD80, MHC II) ([5]; analyzed the next day): can trigger dendritic cell maturation
